Biological target: GAr fused to the N-terminus of p53 (GAr-p53), nascent peptide on polysomes (Epstein-Barr virus | not stated)
Assay: proximity ligation; PLEA (PLA ELISA): polysomes of cycloheximide-treated H1299 lysates captured on 96-well plates with goat anti-RPL5, increasing amounts of polysomes; in vitro PLA with anti-p53 (rabbit) and anti-NACA (mouse)

**Q.** How did the fold interaction (PLEA signal) against p53 turn out when “nascent polypeptide-associated complex subunit alpha (NACA), endogenous in H1299 cells (from UniProt Q13765 1-215) (natural protein)” was run?
**A.** The fold interaction (PLEA signal) against p53 was 3 fold.

Reference: article PMC9508830
